Experimental findings from patent US20020160403 are described below.

Data set [1] deals with PHAS-I.
Data set [2] has as its target FLAG-huBUB3 protein fusion (plasmid p322-1).
The target in data set [3] is huBUB3 protein (untagged; expression plasmid p291-2, ~2.7 kb variant).
Sequence of huBUB3 protein (untagged; expression plasmid p291-2, ~2.7 kb variant) (chain, as listed by the source mutant): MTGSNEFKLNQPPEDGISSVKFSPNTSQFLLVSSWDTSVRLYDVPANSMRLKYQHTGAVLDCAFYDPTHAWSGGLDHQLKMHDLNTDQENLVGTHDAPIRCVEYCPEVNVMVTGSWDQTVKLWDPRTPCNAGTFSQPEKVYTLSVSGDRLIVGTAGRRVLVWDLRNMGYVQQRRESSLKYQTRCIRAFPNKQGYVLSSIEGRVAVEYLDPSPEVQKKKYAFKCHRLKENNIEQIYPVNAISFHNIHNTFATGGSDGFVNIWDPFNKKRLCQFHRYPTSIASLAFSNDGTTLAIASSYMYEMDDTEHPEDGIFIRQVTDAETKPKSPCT

Sequence of FLAG-huBUB3 protein fusion (plasmid p322-1) (chain, as listed by the source): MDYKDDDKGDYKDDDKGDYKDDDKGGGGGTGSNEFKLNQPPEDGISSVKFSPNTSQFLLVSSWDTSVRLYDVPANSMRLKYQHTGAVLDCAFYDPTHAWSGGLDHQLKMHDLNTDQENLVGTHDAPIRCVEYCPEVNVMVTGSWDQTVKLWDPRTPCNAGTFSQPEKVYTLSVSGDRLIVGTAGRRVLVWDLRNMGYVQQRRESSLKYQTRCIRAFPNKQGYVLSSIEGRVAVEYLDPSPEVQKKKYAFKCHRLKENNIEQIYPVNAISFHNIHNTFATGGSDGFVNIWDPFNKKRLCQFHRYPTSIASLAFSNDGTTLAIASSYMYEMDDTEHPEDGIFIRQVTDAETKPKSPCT

B1: huBUB1 protein (plasmid p337-50) (protein)
chain: MDTPENVLQMLEAHMQSYKGNDPLGEWERYIQWVEENFPENKEYLITLLEHLMKEFLDKKKYHNDPRFISYCLKFAEYNSDLHQFFEFLYNHGIGTLSSPLYIAWAGHLEAQGELQHASAVLQRGIQNQAEPREFLQQQYRLFQTRLTETHLPAQARTSEPLHNVQVLNQMITSKSNPGNNMACISKNQGSELSGVISSACDKESNMERRVITISKSEYSVHSSLASKVDVEQVVMYCKEKLIRGESEFSFEELRAQKYNQRRKHEQWVNEDRHYMKRKEANAFEEQLLKQKMDELHKKLHQVVETSHEDLPASQERSEVNPARMGPSVGSQQELRAPCLPVTYQQTPVNMEKNPREAPPVVPPLANAISAALVSPATSQSIAPPVPLKAQTVTDSMFAVASKDAGCVNKSTHEFKPQSGAEIKEGCETHKVANTSSFHTTPNTSLGMVQATPSKVQPSPTVHTKEALGFIMNMFQAPTLPDISDDKDEWQSLDQNEDAFEAQFQKNVRSSGAWGVNKIISSLSSAFHVFEDGNKENYGLPQPKNKPTGARTFGERSVSRLPSKPKEEVPHAEEFLDDSTVWGIRCNKTLAPSPKSPGDFTSAAQLASTPFHKLPVESVHILEDKENVVAKQCTQATLDSCEENMVVPSRDGKFSPIQEKSPKQALSSHMYSASLLRLSQPAAGGVLTCEAELGVEACRLTDTDAAIAEDPPDAIAGLQAEWMQMSSLGTVDAPNFIVGNPWDDKLIFKLLSGLSKPVSSYPNTFEWQCKLPAIKPKTEFQLGSKLVYVHHLLGEGAFAQVYEATQGDLNDAKNKQKFVLKVQKPANPWEFYIGTQLMERLKPSMQHMFMKFYSAHLFQNGSVLVGELYSYGTLLNAINLYKNTPEKVMPQGLVISFAMRMLYMIEQVHDCEIIHGDIKPDNFILGNGFLEQDDEDDLSAGLALIDLGQSIDMKLFPKGTIFTAKCETSGFQCVEMLSNKPWNYQIDYFGVAATVYCMLFGTYMKVKNEGGECKPEGLFRRLPHLDMWNEFFHVMLNIPDCHHLPSLDLLRQKLKKVFQQHYTNKIRALRNRLIVLLLECKRSRK
On to B1, for which, in data set [1], the “in vitro kinase activity towards test proteins” value is “identified PHAS-I as an in vitro substrate of the huBUB1 kinase”.

B2: HA-huBUB1 (protein)
chain: MDTPENVLQMLEAHMQSYKGNDPLGEWERYIQWVEENFPENKEYLITLLEHLMKEFLDKKKYHNDPRFISYCLKFAEYNSDLHQFFEFLYNHGIGTLSSPLYIAWAGHLEAQGELQHASAVLQRGIQNQAEPREFLQQQYRLFQTRLTETHLPAQARTSEPLHNVQVLNQMITSKSNPGNNMACISKNQGSELSGVISSACDKESNMERRVITISKSEYSVHSSLASKVDVEQVVMYCKEKLIRGESEFSFEELRAQKYNQRRKHEQWVNEDRHYMKRKEANAFEEQLLKQKMDELHKKLHQVVETSHEDLPASQERSEVNPARMGPSVGSQQELRAPCLPVTYQQTPVNMEKNPREAPPVVPPLANAISAALVSPATSQSIAPPVPLKAQTVTDSMFAVASKDAGCVNKSTHEFKPQSGAEIKEGCETHKVANTSSFHTTPNTSLGMVQATPSKVQPSPTVHTKEALGFIMNMFQAPTLPDISDDKDEWQSLDQNEDAFEAQFQKNVRSSGAWGVNKIISSLSSAFHVFEDGNKENYGLPQPKNKPTGARTFGERSVSRLPSKPKEEVPHAEEFLDDSTVWGIRCNKTLAPSPKSPGDFTSAAQLASTPFHKLPVESVHILEDKENVVAKQCTQATLDSCEENMVVPSRDGKFSPIQEKSPKQALSSHMYSASLLRLSQPAAGGVLTCEAELGVEACRLTDTDAAIAEDPPDAIAGLQAEWMQMSSLGTVDAPNFIVGNPWDDKLIFKLLSGLSKPVSSYPNTFEWQCKLPAIKPKTEFQLGSKLVYVHHLLGEGAFAQVYEATQGDLNDAKNKQKFVLKVQKPANPWEFYIGTQLMERLKPSMQHMFMKFYSAHLFQNGSVLVGELYSYGTLLNAINLYKNTPEKVMPQGLVISFAMRMLYMIEQVHDCEIIHGDIKPDNFILGNGFLEQDDEDDLSAGLALIDLGQSIDMKLFPKGTIFTAKCETSGFQCVEMLSNKPWNYQIDYFGVAATVYCMLFGTYMKVKNEGGECKPEGLFRRLPHLDMWNEFFHVMLNIPDCHHLPSLDLLRQKLKKVFQQHYTNKIRALRNRLIVLLLECKRSRK
Consider B2, for which the “phosphorylation in kinase reactions” value in data set [2] and in data set [3] was “only HA-huBUB1 auto-phosphorylation was observed in kinase reactions containing these proteins” throughout. For the same protein, the huBUB1 auto-phosphorylation entry in data set [3] is “did not reproducibly stimulate or inhibit huBUB1 auto-phosphorylation”.
